Experimental data: patent publication US20200216536A1
“And” between values parts separate entries of the source, which are not always exact repeats. Equal values may be shown once.

Legend:
canine FcRn [1] = target: T1, canine FcRn (UniProtKB-E2ROL6 [FcRn] and UniProtKB-E2RN10 [canine beta-2-microglobulin]) (canine); assay: SPR Biacore 8K, pH 5.5, Fc captured on BSA via SASA tag, FcRn 200 nM
canine FcRn [2] = target: T1, canine FcRn; assay: as above; remark: listed apart in the source
canine FcRn [3] = target: T1, canine FcRn; assay: SPR Biacore 8K, pH 5.5, Fc captured on BSA via SASA tag, FcRn 100-800 nM
canine FcRn [4] = target: T1, canine FcRn; assay: SPR Biacore 8K, pH 5.5, Fc captured on BSA via SASA tag, FcRn 200 nM; remark: listed apart in the source
canine FcRn [5] = target: T1, canine FcRn; assay: as above; remark: listed apart in the source
canine FcRn [6] = target: T1, canine FcRn; assay: as above; remark: listed apart in the source
canine FcRn [7] = target: T1, canine FcRn; assay: SPR Biacore 8K, pH 5.5, Fc captured on BSA via SASA tag, FcRn 400 nM; average of the 12 wild-type runs
canine FcRn [8] = target: T1, canine FcRn; assay: SPR Biacore 8K, pH 5.5, Fc captured on BSA via SASA tag, FcRn 200 nM; remark: listed apart in the source
canine FcRn [9] = target: T1, canine FcRn; assay: as above; remark: listed apart in the source
canine FcRn [10] = target: T1, canine FcRn; assay: as above; remark: listed apart in the source

B1: wild-type canine IgG.B Fc (CH2 and CH3 domains) with SASA tag (Fc fusion, not shown: small tags and cut ends)
chain: APEMLGGPSVFIFPPKPKDTLLIARTPEVTCVVVDLDPEDPEVQISWFVDGKQMQTAKTQPREEQFNGTYRVVSVLPIGHQDWLKGKQFTCKVNNKALPSPIERTISKARGQAHQPSVYVLPPSREELSKNTVSLTCLIKDFFPPDIDVEWQSNGQQEPESKYRTTPPQLDEDGSYFLYSKLSVDKSRWQRGDTFICAVMHEALHNHYTQESLSHSPGK
Canine FcRn [1]
  Kd: 1710 nM and 2660 nM
  koff: 0.288 s⁻¹ and 0.326 s⁻¹
  kon: 168000 M⁻¹ s⁻¹ and 123000 M⁻¹ s⁻¹
Canine FcRn [2]
  Kd: 1560 nM and 754 nM
  koff: 0.179 s⁻¹ and 0.182 s⁻¹
  kon: 115000 M⁻¹ s⁻¹ and 242000 M⁻¹ s⁻¹
Canine FcRn [3]
  Kd: 3150 nM
  koff: 0.527 s⁻¹
  kon: 168000 M⁻¹ s⁻¹
Canine FcRn [4]
  Kd: 884 nM and 862 nM
  koff: 0.21 s⁻¹ and 0.218 s⁻¹
  kon: 237000 M⁻¹ s⁻¹ and 253000 M⁻¹ s⁻¹
Canine FcRn [5]
  Kd: 502 nM and 784 nM
  koff: 0.169 s⁻¹ and 0.207 s⁻¹
  kon: 336000 M⁻¹ s⁻¹ and 264000 M⁻¹ s⁻¹
Canine FcRn [6]
  Kd: 955 nM and 1310 nM
  koff: 0.181 s⁻¹ and 0.209 s⁻¹
  kon: 190000 M⁻¹ s⁻¹ and 159000 M⁻¹ s⁻¹
Canine FcRn [7]
  Kd: 566 nM
Canine FcRn [8]
  Kd: 2050 nM and 2990 nM
  koff: 0.31 s⁻¹ and 0.315 s⁻¹
  kon: 151000 M⁻¹ s⁻¹ and 105000 M⁻¹ s⁻¹
Canine FcRn [9]
  Kd: 639 nM and 692 nM
  koff: 0.17 s⁻¹ and 0.171 s⁻¹
  kon: 267000 M⁻¹ s⁻¹ and 247000 M⁻¹ s⁻¹
Canine FcRn [10]
  Kd: 8990 nM and 3110 nM
  koff: 0.347 s⁻¹ and 0.354 s⁻¹
  kon: 38700 M⁻¹ s⁻¹ and 114000 M⁻¹ s⁻¹
